The target in the experiment is T1, mature transglutaminase (Streptomyces mobaraensis strain No. 140226) (Streptomyces mobaraensis, UniProt P81453 77-407).
T1 construct: Natural enzyme from the culture solution; also called mature TGase; M-TGase
T1 sequence: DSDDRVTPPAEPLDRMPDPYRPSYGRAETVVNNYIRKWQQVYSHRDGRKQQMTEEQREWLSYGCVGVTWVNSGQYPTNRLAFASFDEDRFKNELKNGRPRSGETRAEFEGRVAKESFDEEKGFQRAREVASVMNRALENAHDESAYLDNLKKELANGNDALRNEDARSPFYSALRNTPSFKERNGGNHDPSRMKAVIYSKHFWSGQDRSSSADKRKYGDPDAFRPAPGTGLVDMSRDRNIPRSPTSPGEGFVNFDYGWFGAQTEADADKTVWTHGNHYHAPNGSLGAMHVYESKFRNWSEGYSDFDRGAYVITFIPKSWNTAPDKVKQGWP
Description: gel filtration (Sephacryl S-100), elution patterns with and without SDS. Here is the method: On the other hand, ammonium sulfate was added to the recovered supernatant until the concentration of saturated solution was achieved, and precipitates were recovered. The recovered precipitates were dissolved in 20 mM phosphate buffer solution (KPB; pH 7.2), and then dialyzed against the same buffer solution. Next, ammonium sulfate was added to the dialysate so that 1.7 M ammonium sulfate was obtained, which was subjected to Phenyl-Sepharose 6 Fast Flow equilibrated with 20 mM phosphate buffer solution (KPB; pH 7.2) containing 1.7 M ammonium sulfate, washed with 1.7 M ammonium sulfate, and eluted with 1.0 M ammonium sulfate. Thus, the target stabilized TGase (P-TGase) was eluted in the eluted fraction. The specific activity of the thus obtained P-TGase (u/Abs 280 nm) was 7.9. The elution patterns of gel filtration (Sephacryl S-100) was compared between the case in which SDS (sodium dodecyl sulfate) was added and the case in which SDS was not added.

Results on three molecules are retold here after patent US20100297726A1 (AMANO ENZYME, published 2010).

B1: pro-sequence peptide of transglutaminase (3) DNGAGEETKSYAETYRLTADDVANINALNESAPAASS (peptide)
peptide: DNGAGEETKSYAETYRLTADDVANINALNESAPAASS
notes: Recovered from P-TGase of Streptomyces mobaraensis strain No. 140226 after SDS treatment and gel filtration
For the molecule B1, the binding result is reported as “binds”.

B2: pro-sequence peptide of transglutaminase (1) DNGAGEETKSYAETYRLTADDVANINALNESAPAA (peptide)
peptide: DNGAGEETKSYAETYRLTADDVANINALNESAPAA
notes: Recovered from P-TGase of Streptomyces mobaraensis strain No. 140226 after SDS treatment and gel filtration; One of three peptide species found in the P-TGase preparation
With B2, the binding result is listed as “binds”.

B3: pro-sequence peptide of transglutaminase (2) DNGAGEETKSYAETYRLTADDVANINALNESAPAAS (peptide)
peptide: DNGAGEETKSYAETYRLTADDVANINALNESAPAAS
notes: as for B1
Take B3: the binding result is “binds”.
